Experimental data: publication PMC4299515

What was measured:
[1] = biological target: isolated chromoshadow-domain (CSD) of HP1β; assay: AUC; sedimentation velocity, c(s) distribution, 8–30 μM protein, physiological ionic strength; no larger complexes than the dimer up to 30 μM
[2] = biological target: full-length HP1β (heterochromatin protein 1 beta) (UniProt P83917); assay: as above
[3] = biological target: full-length HP1β (heterochromatin protein 1 beta) (UniProt P83917); assay: AUC; sedimentation velocity at lower concentrations (two peaks in c(s)); KD from the relative molar fractions of monomer and dimer; dimer to monomers; physiological ionic strength

Sequence of full-length HP1β (heterochromatin protein 1 beta), P83917 1-185 (natural protein; other documents disagree on this pair) (P83917 whole entry): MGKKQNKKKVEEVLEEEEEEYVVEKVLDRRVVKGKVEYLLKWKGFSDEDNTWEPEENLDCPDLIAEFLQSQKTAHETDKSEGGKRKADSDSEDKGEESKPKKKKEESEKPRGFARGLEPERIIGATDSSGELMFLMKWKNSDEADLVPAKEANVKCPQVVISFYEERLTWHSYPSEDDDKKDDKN
Sequence of isolated chromoshadow-domain (CSD) of HP1β (domain or fragment) (P83916 whole entry, the tested form may be a part): as the sequence (P83917 whole entry) above

Substance	stoichiometry N [1]	stoichiometry N [2]	Kd [3]
isolated chromoshadow-domain (CSD) of HP1β (domain or fragment)	2		
full-length HP1β (heterochromatin protein 1 beta), P83917 1-185 (natural protein; other documents disagree on this pair)		2	1000 to 2000 nM
